According to PMC3492304, “Characterization of Arabidopsis FPS Isozymes and FPS Gene Expression Analysis Provide Insight into the Biosynthesis of Isoprenoid Precursors in Seeds” (PLoS ONE, 2012):

T1: FPS2 (Arabidopsis thaliana, UniProt Q43315)
T1 construct: full length, 342 residues; cDNA pcNC2; GST fusion in E. coli BL21(DE3), GST removed with Factor Xa leaving no extra residues; homodimer
T1 sequence (Q43315 1-342): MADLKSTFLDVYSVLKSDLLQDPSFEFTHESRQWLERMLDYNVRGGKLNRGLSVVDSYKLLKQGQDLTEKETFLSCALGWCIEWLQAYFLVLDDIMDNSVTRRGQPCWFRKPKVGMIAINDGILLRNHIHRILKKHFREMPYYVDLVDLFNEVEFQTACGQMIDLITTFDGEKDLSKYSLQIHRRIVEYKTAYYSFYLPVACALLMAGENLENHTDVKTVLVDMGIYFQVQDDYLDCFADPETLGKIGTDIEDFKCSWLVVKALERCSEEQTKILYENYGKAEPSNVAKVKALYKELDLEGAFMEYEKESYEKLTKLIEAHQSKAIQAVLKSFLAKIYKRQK

T2: FPS1S (Arabidopsis thaliana, UniProt Q09152)
T2 construct: gene FPS1; short isoform, 343 residues, lacking the 41-residue N-terminal extension of FPS1L; cDNA pcNC3; GST fusion in E. coli BL21(DE3), GST removed with Factor Xa leaving no extra residues; homodimer
T2 sequence (Q09152 1-343 isoform Q09152-2): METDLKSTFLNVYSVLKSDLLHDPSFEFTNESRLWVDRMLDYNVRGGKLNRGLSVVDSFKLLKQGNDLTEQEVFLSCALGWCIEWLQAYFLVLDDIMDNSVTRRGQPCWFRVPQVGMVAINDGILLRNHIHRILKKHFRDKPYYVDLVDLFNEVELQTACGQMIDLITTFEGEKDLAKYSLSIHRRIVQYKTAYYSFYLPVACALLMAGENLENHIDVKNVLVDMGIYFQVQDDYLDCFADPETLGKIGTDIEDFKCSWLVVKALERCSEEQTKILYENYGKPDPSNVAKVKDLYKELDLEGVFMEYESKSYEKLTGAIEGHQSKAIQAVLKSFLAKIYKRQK


Assays:
[1] = molecular target: T1, FPS2; assay: radiometric [[…]-14C]IPP incorporation, acid hydrolysis and hexane extraction; assay type: biochemical; settings: product inhibition; FPP 0 to 1 mM; PIPES pH 7.0, 37°C
[2] = molecular target: T2, FPS1S; assay: as above; assay type: biochemical; settings: product inhibition; FPP 0 to 1 mM; PIPES pH 7.0, 37°C
[3] = substrate: C=C(C)CCO[P@@](=O)(O)OP(=O)(O)O; assay: purified protein; settings: 200 µM DMAPP, 4 mM MgCl2, PIPES pH 7.0, 37°C, labelled compound, apparent Km, kcat per dimer
[4] = substrate: CC(C)=CCC/C(C)=C/COP(=O)(O)OP(=O)(O)O; assay: purified protein; assay type: biochemical, Arabidopsis thaliana; settings: 100 µM IPP, 4 mM MgCl2, PIPES pH 7.0, 37°C, apparent Km, kcat per dimer
[5] = substrate: CC(C)=CCOP(=O)(O)OP(=O)(O)O; assay: purified protein; assay type: biochemical, Arabidopsis thaliana; settings: 100 µM IPP, 4 mM MgCl2, PIPES pH 7.0, 37°C, apparent Km, kcat per dimer

Molecule	% reduction of activity at 1 mM [1]	% reduction of activity at 1 mM [2]	Km [3]	kcat [3]	kcat/Km [3]	Km [4]	kcat [4]	kcat/Km [4]	Km [5]	kcat [5]	kcat/Km [5]
CC(C)=CCC/C(C)=C/CC/C(C)=C/COP(=O)(O)OP(=O)(O)O [FPP]	~ 30%	~ 30%									
FPS1S (Arabidopsis thaliana) (protein, short isoform, 343 residues, lacking the 41-residue N-terminal extension of FPS1L; cDNA pcNC3; GST fusion in E. coli BL21(DE3), GST removed with Factor Xa leaving no extra residues; homodimer) METDLKSTFLNVYSVLKSDLLHDPSFEFTNESRLWVDRMLDYNVRGGKLNRGLSVVDSFKLLKQGNDLTEQEVFLSCALGWCIEWLQAYFLVLDDIMDNSVTRRGQPCWFRVPQVGMVAINDGILLRNHIHRILKKHFRDKPYYVDLVDLFNEVELQTACGQMIDLITTFEGEKDLAKYSLSIHRRIVQYKTAYYSFYLPVACALLMAGENLENHIDVKNVLVDMGIYFQVQDDYLDCFADPETLGKIGTDIEDFKCSWLVVKALERCSEEQTKILYENYGKPDPSNVAKVKDLYKELDLEGVFMEYESKSYEKLTGAIEGHQSKAIQAVLKSFLAKIYKRQK			23.1 ± 0.4 µM	1.04 s⁻¹	45000 M⁻¹ s⁻¹	8.3 ± 1.2 µM	0.607 s⁻¹	73300 M⁻¹ s⁻¹	22.7 ± 2.1 µM	0.87 s⁻¹	38300 M⁻¹ s⁻¹
FPS2 (Arabidopsis thaliana) (protein, full length, 342 residues; cDNA pcNC2; GST fusion in E. coli BL21(DE3), GST removed with Factor Xa leaving no extra residues; homodimer) MADLKSTFLDVYSVLKSDLLQDPSFEFTHESRQWLERMLDYNVRGGKLNRGLSVVDSYKLLKQGQDLTEKETFLSCALGWCIEWLQAYFLVLDDIMDNSVTRRGQPCWFRKPKVGMIAINDGILLRNHIHRILKKHFREMPYYVDLVDLFNEVEFQTACGQMIDLITTFDGEKDLSKYSLQIHRRIVEYKTAYYSFYLPVACALLMAGENLENHTDVKTVLVDMGIYFQVQDDYLDCFADPETLGKIGTDIEDFKCSWLVVKALERCSEEQTKILYENYGKAEPSNVAKVKALYKELDLEGAFMEYEKESYEKLTKLIEAHQSKAIQAVLKSFLAKIYKRQK			31.3 ± 0.5 µM	4.48 s⁻¹	143000 M⁻¹ s⁻¹	11.3 ± 1.0 µM	2.21 s⁻¹	195000 M⁻¹ s⁻¹	31.5 ± 0.5 µM	3.29 s⁻¹	103000 M⁻¹ s⁻¹
